Measurements reported in patent publication US20210253725A1 (BIONTECH, published 2021).
Numbering of substitutions follows the chain as printed. In names and notes the source's numbering stands.

T1: CD134 protein (His-tagged, Sino Biological Inc. 10481-H08H) (human, UniProt P43489 29-216)
T1 construct: bought protein coated on ELISA plates; also called OX40; TNFRSF4; not shown: His tag
T1 sequence (looked up): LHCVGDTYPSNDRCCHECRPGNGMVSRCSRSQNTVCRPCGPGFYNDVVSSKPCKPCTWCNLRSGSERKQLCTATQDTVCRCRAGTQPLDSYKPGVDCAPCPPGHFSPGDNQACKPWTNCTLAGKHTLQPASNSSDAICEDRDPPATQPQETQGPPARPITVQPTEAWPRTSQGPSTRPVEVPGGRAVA

T2: CD134 expressed on the cell surface of HT1080_OX40 cells (human, UniProt P43489 29-277)
T2 sequence (looked up): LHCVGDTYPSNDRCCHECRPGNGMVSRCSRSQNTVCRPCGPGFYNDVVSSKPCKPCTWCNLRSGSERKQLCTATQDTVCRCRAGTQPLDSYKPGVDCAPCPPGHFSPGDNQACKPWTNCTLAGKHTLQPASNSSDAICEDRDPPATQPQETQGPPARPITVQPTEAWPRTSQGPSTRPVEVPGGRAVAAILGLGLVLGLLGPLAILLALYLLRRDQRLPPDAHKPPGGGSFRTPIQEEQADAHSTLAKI

B1: P018.S.12.A.A06 (antibody, V domains shown)
VH: QSVEESGGRLVTPGTPLTLTCTVSGFSLSSFAMTWVRQAPGKGLEWIGIISSSGTTYYASWAKGRFTISKTSTTVDLRITSPTTEDTATYFCASHYDDYGDSDALDPWGPGTLVTVSS
VL: AAVMTQTPSPVSAAVGGTVTINCQASEDIYSNLAWFQQKPGQPPKLLIYRASTLASGVPSRFSGSGSGTEFTLTISGLQSDDAATYYCLGVDRHISDRAFGGGTEVVVK
notes: V regions on human Ig constant parts; also called AB134_55
B2: P018.S.12.A.B03 (antibody, V domains shown)
VH: QSLEESGGRLVTPGTPLTLICTVSGIDLSSGAMGWVRQAPGKGLEYIGYIYTGSGTTSYASWVNGRFTISMTSTTVDLKITSPTTEDTATYFCARDAASSYWGHFTLWGQGTLVTVSS
VL: DIVMTQTPASVEAAVGGTVTIKCQASENIYSSLAWYQQKPGQPPKLLIYRTSTLASGVPSRFKGSGSGTQFTLTISDLESDDAATYYCQSYYHNSGGGYDYGFGGGTEVVAK
notes: V regions on human Ig constant parts; also called AB134_58
B3: P018.S.04.A.C06 (antibody, V domains shown)
VH: QSVEESGGRLVTPGTPQTLTCTVSGFSLSSYAMSWVRQAPGKGLEWIGIISSSGSTYYASWAKGRFTISKTSTTVDLKITSPTTEDTATYFCARDAYPSYSPFGYYFTLWGQGTLVTVSS
VL: AIKMTQTPASVSAAVGGTVSINCQASEDIYNYLAWYQQKPGQPPKLLIYDASDLASGVPSRFKGSGSGKQFTLTISGVQSDDAATYYCQHGYFTYSGENAFGGGTEVVVK
notes: V regions on human Ig constant parts; also called AB134_8
B4: P018.S.12.A.E03 (antibody, V domains shown)
VH: QSVEESGGRLVTPGTPLTLTCTVAGIDLNICGMSWVRQAPGKGLEWIGIIYPSDYTYYATWAKGRFTISKTSTTVDLKITSPTTEDTATYFCARGLGHAWSHFDLWGQGTLVTVSS
VL: AFELTQTPASVSEPVGGTVTIKCQASQSIGSDLAWYQQKPGQPPKLLIYSVSNLPSGVSSRFKGSRSGTEYTLTISDLESADAATYYCQSYYGTITTGYIAFGGGTEVVVK
notes: V regions on human Ig constant parts; also called AB134_74
B5: P018.S.11.A.B03 (antibody, V domains shown)
VH: QSLEESGGRLVTPGTPLTLTCTVSGFSLSNYAMSWVRQAPGKGLEWIAIISGSGSTNYASWAKGRFTLSKASTTVALKITSPTTEDTATYFCGRGRDDDYAWDLWGQGTLVTVSS
VL: DVVMTQTPASVSEPVGGTVTIKCQASQTISNYLAWYQQKPGQPPKLLIYAASTLASGVSSRFRGSGSGTEFSLTISDLESADAATYYCHCTYYDSSYHGFGGGTEVVVK
notes: V regions on human Ig constant parts; also called AB134_24
B6: P018.S.12.A.B06 (antibody, V domains shown)
VH: QEQLEESGGGLVQPEGSLTLTCTASGFSFSYYWMCWVRQAPGKGLEWSACIGTGSGSTYYATWAKGRFTISKTSSTTVTLQMTSLTAADTATYFCARDWGIYSSDAYYMDYFNLWGPGTLVTVSS
VL: AFELTQTPASVEAAVGGTVTIKCQASQSIGSYLAWYQQKPGQPPKPLIYEASKLASGVSSRFKGSGSGTQFTLTISGVESADAATYYCQQGGISTNVQNAFGGGTEVVVK
notes: V regions on human Ig constant parts; also called AB134_60
B7: P018.S.11.A.A04 (antibody, V domains shown)
VH: QSVEESGGRLVTPGTPLTLTCTVSGFSLSSYAMGWVRQAPGKGLEYIGVISTSANTYYATWAKGRFTISKTSTTVDLRITSPTTEDTATYFCARVVGLYDSYGDVDATYDAFDPWGPGTLVTVSS
VL: AQVLTQTASPVSAAVGDTVTINCQSSQSVYNNNLLSWYQQKPGQPPKLLVYDASNLASGVPHRFSGSGSGTQFTLTISGVQSDDAATYYCLGGYDDDADIYAFGGGTEVVVK
notes: V regions on human Ig constant parts; also called AB134_21
B8: P018.S.12.A.F06 (antibody, V domains shown)
VH: QSLEESGGDLVKPGGTLTLTCKASGIDFNNYYVCWVRQAPGKGLEWVGCIYTGSGSTYYASWAKGRFTITRSSSTTVTLQMTSLTAADTATYFCARPEFYDTYGYAGYGYATPNYFNFWGPGTLVTVSS
VL: AAVLTQTPSPVSAAVGGTVTIKCQASQSVYNNNLLSWYQQKPGQPPKLLMYDASNLASGVPDRFSGSGSGTQFTLTISDLESDDAATYYCLGGYDDDADYNAFGGGTEVVVA
notes: V regions on human Ig constant parts; also called AB134_82
B9: P018.S.11.A.E02 (antibody, V domains shown)
VH: QEQLEESGGDLVKPEGSLTLTCTASGFSFNVDYYMCWVRQAPGKGLEWIACIYVGSEGSTYYASWAKGRFTISKTSSTTVTLQMTSLTAADTATYFCARHYAGYAGYNYATDYYFTLWGPGTLVTVSS
VL: DIVMTQTPSSVSAGVGGTVTINCQASQSVTNFLSWYQQKPGQPPKLLIYGASTLASGVPSRFKGSGSGTEFTLTISGMKAEDVATYYCQSGYYSATFGAGTKVEIK
notes: V regions on human Ig constant parts; also called AB134_33
B10: P018.S.11.A.A03 (antibody, V domains shown)
VH: QSLEESGGDLVKPGASLTLPCTASGFTLSGYWMCWVRQAPGKGLEWIGCIYNGDGSTYYASWAKGRFTISKTSSTTVTLQMTSLTAADTATYFCARDSNGWGAYGLWGPGTLVTVSS
VL: AIEMTQTPSSVSAAVGGTVTIDCQASQSIGSYLSWYQQKPGQPPKLLIYDASDLASGVPSRFSGSGSGTEFTLTISGVQSDDAATYYCQGGYYSSATEIAFGGGTEVVVK
notes: V regions on human Ig constant parts; also called AB134_20
B11: P018.S.11.A.G05 (antibody, V domains shown)
VH: QSLEESGGDLVKPGASLTLTCAASGFSLNNWVMCWVRQAPGKGLEWIACIDIVGSGSTHYATWAKGRFTMSKASSITVTLQMTSLTAADTATYFCARGVNGDGNLNLWGPGTLVTVSS
VL: DVVMTQTPASVSEPVGGAVTIKCQASETISNYLAWYQQKPGQRPKLLIYGASNLESGVPSRFKGSGSGTEFTLTISDLESADAATYYCQCTYVGDSYTAFGGGTEVVVK
notes: V regions on human Ig constant parts; also called AB134_45
B12: P018.S.12.A.C06 (antibody, V domains shown)
VH: QSVEESGGRLVKPDETLTLICTVSGIDLSINVVGWVRQAPGEGLEWIGDISSHGDTIYATWAKGRFTISKTSTTVDLKMTSLTASDTATYFCARYVGDGYYDLWGPGTLVTVSS
VL: AYDMTQTPASVSAAVGGTVTINCQASQSISNLLAWYQQKPGQRPKLLIYDTSKLASGVPSRFKGSGSGTQFTLTISDLESADAATYYCQQSYSSSNIANLFGGGTEVVVK
notes: V regions on human Ig constant parts; also called AB134_66
B13: P018.S.12.A.E01 (antibody, V domains shown)
VH: QSVEESGGRLVTPGGSLTLTCTVSGIDLSSADMSWVRQAPGEGLEYIGWINNVGSAYYASWAKGRFSISKTSSTTVDLKVTSLTTEDTATYFCVRGYWLDLWGQGTLVTVSS
VL: AAVLTQTPSPVSAAVGGTVSISCQSSVNVYNNNYLAWFQQKPGQPPKLLIYAASTLPSGVSSRFSGNGSGTEFTLTISGVQSDDAATYYCVGYYSSTDDNGFGGGTEVVVK
notes: V regions on human Ig constant parts; also called AB134_72
B14: P018.S.11.A.H05 (antibody, V domains shown)
VH: QQRLVESGGGLVKPGASLTLTCTASGFSFSSGYDMCWVRQAPGKGLEWVGCIDTATDTIYYASWAPGRFTISKTSSTMVTLQMTSLTAADTATYFCARSVGGVDYAIDLWGPGTLVTVSS
VL: AYDMTQTPVSVEVPVGGTVTIKCQASQNIGSRLVWYQQKPGQSPKFLIYYASNLASGVSSRFKGSGSGTQFTLTISDVQSDNAATYYCQQTYSYSDVDDTFGGGTEVVVK
notes: V regions on human Ig constant parts; also called AB134_48
B15: P018.S.12.A.D03 (antibody, V domains shown)
VH: B14 VH with Q2E, A55G, D57G, K73E, V103Y
VL: B14 VL with V9A
notes: V regions on human Ig constant parts; also called AB134_68

Key:
[1] = target: T1, CD134 protein (His-tagged, Sino …); assay: ELISA, coated His-tagged CD134
[2] = target: T2, CD134 expressed on the cell surface of …; assay: cell-based or functional assay
[3] = target: T2, CD134 expressed on the cell surface of …; assay: HT1080_OX40 cells, imaging
Note: test concentration or dose not given here.

Binder | ELISA [abs. corr.] [1] [abs. corr.] | Functional assay Cross-linked by F(ab′)2 fragment IL-8 [2] [abs. corr.] | Functional assay IL-8 [2] [abs. corr.] | Cellular binding assay [RFU] [3] [RFU]
B1 | 1.61 | 2.04 | 0.062 | 515
B2 | 1.18 | 2.05 | 1.07 | 446
B3 | 2.5 | 2 | 0.538 | 458
B4 | 2.04 | 2 | 0.461 | 482
B5 | 2.66 | 2.1 | -0.075 | 527
B6 | 1.4 | 2.07 | 1.84 | 451
B7 | 2.1 | 1.99 | 0.533 | 582
B8 | 1.65 | 2.05 | 0.374 | 500
B9 | 2.65 | 2.04 | 0.214 | 525
B10 | 1.93 | 2.01 | 1.38 | 459
B11 | 2.36 | 2.05 | 0.031 | 531
B12 | 2.35 | 2.1 | 0.881 | 525
B13 | 2.55 | 2.04 | 0.439 | 463
B14 | 1.69 | 2.01 | 1.21 | 478
B15 | 1.34 | 1.83 | 0.707 | 559
